Results published in paper PMC9482650, “Quantitative fragmentomics allow affinity mapping of interactomes” (Nature Communications, 2022).

T1: SHANK1, Q9Y566
T1 sequence (Q9Y566 658-767, limits assumed, looked up): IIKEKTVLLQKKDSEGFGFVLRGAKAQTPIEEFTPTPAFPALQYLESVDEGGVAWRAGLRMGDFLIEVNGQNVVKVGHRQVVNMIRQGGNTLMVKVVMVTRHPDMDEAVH

T2: MPDZ_12, O75970
T2 sequence (O75970 1857-1958, limits assumed, looked up): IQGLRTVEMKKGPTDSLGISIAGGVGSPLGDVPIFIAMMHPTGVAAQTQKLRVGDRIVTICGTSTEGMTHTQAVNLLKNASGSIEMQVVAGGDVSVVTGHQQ

T3: PDZD7_3, Q9H5P4
T3 sequence (Q9H5P4 857-944, limits assumed, looked up): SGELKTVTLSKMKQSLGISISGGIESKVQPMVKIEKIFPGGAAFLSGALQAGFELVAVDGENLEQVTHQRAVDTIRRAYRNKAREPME

T4: DFNB31_3, Q9P202
T4 sequence (Q9P202 811-907, limits assumed, looked up): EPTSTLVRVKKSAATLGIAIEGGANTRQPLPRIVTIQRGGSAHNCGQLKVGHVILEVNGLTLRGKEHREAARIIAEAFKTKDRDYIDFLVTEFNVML

T5: DLG3_3, Q92796
T5 sequence (Q92796 374-475, limits assumed, looked up): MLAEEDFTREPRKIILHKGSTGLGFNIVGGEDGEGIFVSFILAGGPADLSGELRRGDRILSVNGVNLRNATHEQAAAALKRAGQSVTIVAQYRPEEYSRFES

T6: DFNB31_1, Q9P202
T6 sequence (Q9P202 135-233, limits assumed, looked up): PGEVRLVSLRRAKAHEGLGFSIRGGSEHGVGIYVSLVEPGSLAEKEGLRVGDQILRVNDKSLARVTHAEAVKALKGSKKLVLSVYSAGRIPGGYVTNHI

T7: MPP2, Q14168
T7 sequence (Q14168 180-250, limits assumed, looked up): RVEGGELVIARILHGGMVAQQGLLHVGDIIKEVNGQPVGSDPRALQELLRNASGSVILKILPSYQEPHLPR

T8: APBA3_1, O96018
T8 sequence (O96018 389-490, limits assumed, looked up): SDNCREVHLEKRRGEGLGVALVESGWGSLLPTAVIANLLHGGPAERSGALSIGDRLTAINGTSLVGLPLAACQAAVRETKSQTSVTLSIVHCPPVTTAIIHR

T9: LNX2_2, Q8N448
T9 sequence (Q8N448 334-432, limits assumed, looked up): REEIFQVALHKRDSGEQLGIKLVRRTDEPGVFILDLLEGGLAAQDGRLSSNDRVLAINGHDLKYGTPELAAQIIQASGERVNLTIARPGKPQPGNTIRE

T10: MPP6, Q9NZW5
T10 sequence (Q9NZW5 125-219, limits assumed, looked up): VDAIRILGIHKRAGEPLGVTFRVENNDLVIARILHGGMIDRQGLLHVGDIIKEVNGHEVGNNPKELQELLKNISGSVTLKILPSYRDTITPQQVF


Legend:
Assay in all cases: holdup assay
Parameters in all cases: key: below the threshold = too weak to quantify, mostly under pKd 3.1 to 4
Details in all cases: plain residues with an end cap or a label only (N-terminal biotin on a linker: ado-ado)
TJP1_3, Q07157 = molecular target: TJP1_3, Q07157
MAGI2_4, Q86UL8 = molecular target: MAGI2_4, Q86UL8
DLG4_2, P78352 = molecular target: DLG4_2, P78352
SHANK1, Q9Y566 = molecular target: T1, SHANK1, Q9Y566
MAGI2_6, Q86UL8 = molecular target: MAGI2_6, Q86UL8
MPDZ_12, O75970 = molecular target: T2, MPDZ_12, O75970
FRMPD3, Q5JV73 = molecular target: FRMPD3, Q5JV73
PDZD7_3, Q9H5P4 = molecular target: T3, PDZD7_3, Q9H5P4
GRIP2_6, Q9C0E4 = molecular target: GRIP2_6, Q9C0E4
DFNB31_3, Q9P202 = molecular target: T4, DFNB31_3, Q9P202
DLG3_3, Q92796 = molecular target: T5, DLG3_3, Q92796
DFNB31_1, Q9P202 = molecular target: T6, DFNB31_1, Q9P202
Inadl_1, Q8NI35 = molecular target: Inadl_1, Q8NI35
MPP2, Q14168 = molecular target: T7, MPP2, Q14168
LDB3, O75112 = molecular target: LDB3, O75112
GRIP2_5, Q9C0E4 = molecular target: GRIP2_5, Q9C0E4
APBA3_1, O96018 = molecular target: T8, APBA3_1, O96018
LIMK2, P53671 = molecular target: LIMK2, P53671
SCRIB_3, Q14160 = molecular target: SCRIB_3, Q14160
LNX2_2, Q8N448 = molecular target: T9, LNX2_2, Q8N448
GRIP2_3, Q9C0E4 = molecular target: GRIP2_3, Q9C0E4
IL16_3, Q14005 = molecular target: IL16_3, Q14005
MPP6, Q9NZW5 = molecular target: T10, MPP6, Q9NZW5
Inadl_8, Q8NI35 = molecular target: Inadl_8, Q8NI35
PTPN3, P26045 = molecular target: PTPN3, P26045
DLG4_1, P78352 = molecular target: DLG4_1, P78352
MAGI3_2, Q5TCQ9 = molecular target: MAGI3_2, Q5TCQ9
CASK, O14936 = molecular target: CASK, O14936
GRIP2_4, Q9C0E4 = molecular target: GRIP2_4, Q9C0E4
Sequence of GRIP2_4, Q9C0E4 (Q9C0E4 446-548): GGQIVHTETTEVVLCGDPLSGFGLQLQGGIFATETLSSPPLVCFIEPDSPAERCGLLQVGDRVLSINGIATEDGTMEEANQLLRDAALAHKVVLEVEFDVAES

Sequence of TJP1_3, Q07157 (Q07157 416-512): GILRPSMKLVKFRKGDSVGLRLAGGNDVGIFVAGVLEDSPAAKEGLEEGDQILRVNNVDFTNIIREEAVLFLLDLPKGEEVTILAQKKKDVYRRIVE
Sequence of MAGI3_2, Q5TCQ9 (Q5TCQ9 398-503): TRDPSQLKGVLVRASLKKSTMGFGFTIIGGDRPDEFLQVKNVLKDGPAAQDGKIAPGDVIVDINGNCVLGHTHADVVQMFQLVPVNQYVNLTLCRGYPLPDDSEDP
Sequence of GRIP2_3, Q9C0E4 (Q9C0E4 238-339): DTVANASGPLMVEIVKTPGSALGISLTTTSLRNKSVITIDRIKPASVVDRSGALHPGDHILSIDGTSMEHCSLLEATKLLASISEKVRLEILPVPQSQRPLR
Sequence of LDB3, O75112 (O75112 1-94): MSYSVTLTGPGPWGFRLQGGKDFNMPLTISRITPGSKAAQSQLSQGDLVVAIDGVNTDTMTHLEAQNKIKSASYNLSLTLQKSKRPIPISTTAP
Sequence of LIMK2, P53671 (P53671 143-248): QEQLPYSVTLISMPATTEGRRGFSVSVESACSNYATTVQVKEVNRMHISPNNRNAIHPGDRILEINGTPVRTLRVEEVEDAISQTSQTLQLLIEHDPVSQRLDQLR
Sequence of DLG4_1, P78352 (P78352 62-152): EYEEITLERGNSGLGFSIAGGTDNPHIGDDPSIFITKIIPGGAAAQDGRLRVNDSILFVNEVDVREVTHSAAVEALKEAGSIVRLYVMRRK
Sequence of PTPN3, P26045 (P26045 505-587): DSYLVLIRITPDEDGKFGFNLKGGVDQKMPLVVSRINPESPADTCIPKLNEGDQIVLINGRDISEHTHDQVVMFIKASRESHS
Sequence of MAGI2_4, Q86UL8 (Q86UL8 772-865): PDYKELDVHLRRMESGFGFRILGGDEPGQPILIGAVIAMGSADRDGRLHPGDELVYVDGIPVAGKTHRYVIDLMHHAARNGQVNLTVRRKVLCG
Sequence of DLG4_2, P78352 (P78352 155-259): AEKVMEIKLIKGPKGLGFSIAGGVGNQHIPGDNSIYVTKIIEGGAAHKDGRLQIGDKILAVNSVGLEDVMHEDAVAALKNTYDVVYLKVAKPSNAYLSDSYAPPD
Sequence of SCRIB_3, Q14160 (Q14160 999-1103): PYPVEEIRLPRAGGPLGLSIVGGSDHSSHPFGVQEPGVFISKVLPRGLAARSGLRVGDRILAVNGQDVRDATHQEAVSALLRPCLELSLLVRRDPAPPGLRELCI
Sequence of GRIP2_6, Q9C0E4 (Q9C0E4 648-740): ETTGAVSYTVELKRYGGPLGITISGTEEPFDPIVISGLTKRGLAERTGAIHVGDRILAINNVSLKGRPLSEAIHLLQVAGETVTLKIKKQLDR
Sequence of CASK, O14936 (O14936 487-570): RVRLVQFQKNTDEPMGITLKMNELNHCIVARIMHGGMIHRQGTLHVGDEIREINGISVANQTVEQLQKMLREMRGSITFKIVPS
Sequence of FRMPD3, Q5JV73 (Q5JV73 12-100): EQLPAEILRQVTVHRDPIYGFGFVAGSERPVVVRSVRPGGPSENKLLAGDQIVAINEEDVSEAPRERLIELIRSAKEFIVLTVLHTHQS
Sequence of Inadl_1, Q8NI35 (Q8NI35 113-229): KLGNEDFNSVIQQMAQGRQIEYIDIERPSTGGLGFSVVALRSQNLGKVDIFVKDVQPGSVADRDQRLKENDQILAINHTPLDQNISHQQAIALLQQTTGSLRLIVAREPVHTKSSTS
Sequence of IL16_3, Q14005 (Q14005 1107-1207): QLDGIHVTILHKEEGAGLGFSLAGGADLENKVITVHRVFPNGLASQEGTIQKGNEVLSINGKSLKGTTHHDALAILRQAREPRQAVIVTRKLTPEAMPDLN
Sequence of GRIP2_5, Q9C0E4 (Q9C0E4 544-642): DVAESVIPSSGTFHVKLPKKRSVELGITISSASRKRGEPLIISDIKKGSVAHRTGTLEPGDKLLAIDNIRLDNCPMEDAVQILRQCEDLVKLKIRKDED
Sequence of MAGI2_6, Q86UL8 (Q86UL8 1141-1229): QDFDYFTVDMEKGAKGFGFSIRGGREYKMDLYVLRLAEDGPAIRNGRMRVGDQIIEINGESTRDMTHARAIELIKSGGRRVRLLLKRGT
Sequence of Inadl_8, Q8NI35 (Q8NI35 1425-1530): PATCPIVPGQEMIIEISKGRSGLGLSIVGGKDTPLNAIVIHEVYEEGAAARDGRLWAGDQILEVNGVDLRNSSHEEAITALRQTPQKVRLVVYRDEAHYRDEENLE

pKd (TJP1_3, Q07157) | pKd (MAGI2_4, Q86UL8) | pKd (DLG4_2, P78352) | pKd (SHANK1, Q9Y566) | pKd (MAGI2_6, Q86UL8) | pKd (MPDZ_12, O75970) | pKd (FRMPD3, Q5JV73) | pKd (PDZD7_3, Q9H5P4) | pKd (GRIP2_6, Q9C0E4) | pKd (DFNB31_3, Q9P202) | pKd (DLG3_3, Q92796) | pKd (DFNB31_1, Q9P202) | pKd (Inadl_1, Q8NI35) | pKd (MPP2, Q14168) | pKd (LDB3, O75112) | pKd (GRIP2_5, Q9C0E4) | pKd (APBA3_1, O96018) | pKd (LIMK2, P53671) | pKd (SCRIB_3, Q14160) | pKd (LNX2_2, Q8N448) | further results | Binder
below the threshold | below the threshold | below the threshold | below the threshold | below the threshold | 3.73 | 4.02 | below the threshold | below the threshold | 3.49 | below the threshold | below the threshold | below the threshold | below the threshold | below the threshold | below the threshold | below the threshold | below the threshold | below the threshold | below the threshold | pKd (GRIP2_3, Q9C0E4): below the threshold; pKd (IL16_3, Q14005): below the threshold; pKd (MPP6, Q9NZW5): 3.77; pKd (Inadl_8, Q8NI35): below the threshold; pKd (PTPN3, P26045): 3.8; pKd (DLG4_1, P78352): below the threshold; pKd (MAGI3_2, Q5TCQ9): below the threshold; pKd (CASK, O14936): below the threshold; pKd (GRIP2_4, Q9C0E4): below the threshold | KPDKQEEFYA [SDC3, O75056]
below the threshold | 3.47 | below the threshold | 4.71 | below the threshold | 3.47 | below the threshold | 4.18 | below the threshold | 3.53 | below the threshold | below the threshold | below the threshold | below the threshold | below the threshold | below the threshold | below the threshold | below the threshold | 3.53 | below the threshold | pKd (GRIP2_3, Q9C0E4): below the threshold; pKd (IL16_3, Q14005): below the threshold; pKd (MPP6, Q9NZW5): below the threshold; pKd (Inadl_8, Q8NI35): below the threshold; pKd (PTPN3, P26045): 3.77; pKd (DLG4_1, P78352): below the threshold; pKd (MAGI3_2, Q5TCQ9): below the threshold; pKd (CASK, O14936): below the threshold; pKd (GRIP2_4, Q9C0E4): below the threshold | DSEEELPTRL [GRK6, P43250]
below the threshold | below the threshold | below the threshold | below the threshold | below the threshold | below the threshold | below the threshold | 3.99 | below the threshold | below the threshold | below the threshold | below the threshold | below the threshold | below the threshold | below the threshold | below the threshold | below the threshold | below the threshold | below the threshold | below the threshold | pKd (GRIP2_3, Q9C0E4): below the threshold; pKd (IL16_3, Q14005): below the threshold; pKd (MPP6, Q9NZW5): 3.53; pKd (Inadl_8, Q8NI35): below the threshold; pKd (PTPN3, P26045): below the threshold; pKd (DLG4_1, P78352): below the threshold; pKd (MAGI3_2, Q5TCQ9): below the threshold; pKd (CASK, O14936): below the threshold; pKd (GRIP2_4, Q9C0E4): below the threshold | FVFESRKEIL [TBPL1, P62380]
